The values below come from PMC3025492.

The series addresses GST-capicua (1-450) (Homo sapiens, UniProt Q96RK0-2 1-450). Description: EMSA.

B1: CRE probe (ETV4/ETV5 promoter CIC-responsive element) (dsDNA)
DNA 1: GTCGCGTTTTTTATGAATGAAAAACGTCCTTACATTCATT
DNA 2: AATGAATGTAAGGACGTTTTTCATTCATAAAAAACGCGAC
B1: the binding result is given as “binds”.
